According to article PMC6350010:

Target: Wild-type Aβ (1–40) peptide
Test: single-molecule fluorescence burst analysis

In the case of Atto655-Aβ40 (peptide), the mean of the oligomer size distribution, μ1 (relative photon number N phot,rel) is reported as 7.4 N¯phot,mon.
